From US12551573B2, “Compositions and methods for the targeting of PCSK9” (Scribe Therapeutics Inc., priority 2022, dated 2026)

B1: DOMAIN_24838 (protein)
chain: FQASVSFKDVTVELTQEEWQQMGPLQRTLYRDVMLENYNNLVSVGSCIYKPELIFKLEQGEEPWLLEEEFSNQSYQVLEHY
modifications: Pteropus alecto
B2: DOMAIN_23113 (protein, listed as Camelus ferus)
chain: GSVCEVSVSFEDVTVDFSREEWQHLDPAQRRLYWDVTLENYSHLCSVGYQVPKPEVIFKLEQGEGPWTLEEETPHQSCSGA
B3: DOMAIN_24204 (protein, listed as Propithecus coquereli)
chain: SLGSVSFKDVTVDFSREEWQQLDLAQKSLYRDVTLENYFNLISVGCQVPKPEVIFNLEQGGELCVLDGGLSCQNCSDGDIG
B4: DOMAIN_25654 (protein)
chain: LWLPLTFEDIAIYFSEQEWQNLEAWQKDLYRNVMRANYEILVSLDDGLPKPELISHIEQGKELFWNLGETQKSGNIICSSA
modifications: Pteropus alecto
B5: DOMAIN_23281 (protein, listed as Colobus angolensis)
chain: CWGLLSFKDISMEFTWDEWQLLDSTQKYLYRDVILENYHNLISVGYHGTKPDLIFKLEQGEDPWIINAKISRQSRPDGWEE
B6: DOMAIN_23331 (protein, listed as Carlito syrichta)
chain: LQELLSFEDLSVDFTQKEWQLLNPYQKNLYKDVMLENYSSLVSLGYEVIKPDVIFKLEQGEEPWIRDAEMPSSPSLEVWQV
B7: DOMAIN_24615 (protein, listed as Colobus angolensis)
chain: TEGLVMFEDVAVYFSREEWGLLNVTQKGLYQDVMLENFALVSSLGLAPLRSPVFSQLENDEQLWVPSWVDETPVSRAEARR
B8: DOMAIN_22917 (protein, listed as Cervus elaphus)
chain: MAFEDVAVHFSQEEWGLLDTAQRSLYRRVMLENFALLASLGLSVSRPHVVTQLERGEEPWVLSGVDVTLPRDAQRRPHRGS
B9: DOMAIN_25973 (protein, listed as Geotrypetes seraphini)
chain: ARAPVSFEEVAVYFSPEEWQTLQGWQKEMYRGVMRENYEIMLSLGYQFSKPEILLMMERGEEPCVEDCQRRIPVTFREKHL
B10: DOMAIN_22778 (protein, listed as Saimiri boliviensis)
chain: SQGSVSFKDVTVDFTQEEWQQLDPAQKALYRDVMLENYCHFIAVGFHMTKPDMIRKLEQGEELWTQRIFPSYSYLEEDGKT
B11: DOMAIN_22586 (protein)
chain: FQASVSFQDVTVEFSQEEWQHLGPVERTLYRDVMLENYSHLVSVGYCFTKPELIFTLEQGEDPWLLEKEKGFLSRNSPEDS
modifications: Nomascus leucogenys
B12: DOMAIN_23454 (protein, listed as Carlito syrichta)
chain: GKALLSFEDVAMYFTREEWNHLDWAQKDLYRDVMLENYMNMVLLGFQFPKPEVICQLENWDEPWILDLPRAGNRKASSSAC
B13: DOMAIN_23856 (protein, listed as Erinaceus europaeus)
chain: SLGMVSFDDVMVTFSLEEWQLLSTSQRTLYRTVMLDTYSSLAALGHCAVKPGVIIKLEQGAEPWMGAQAPPRSLSDPCGPS
B14: DOMAIN_23093 (protein, listed as Propithecus coquereli)
chain: ESLTLEDVAVEFTWEEWQLLGPAQKDLYWDVMLENYNHLVSLGYQASKPDALSKLAQGEEPCVIEGKIQNRNCPGIRKADS
B15: DOMAIN_25682 (protein, listed as Rhinopithecus bieti)
chain: PRLPLTFEDVAIYFSEQEWQDLEAWQKELYKHVMRSNYETLVSLDDGLPKPELISWIEHGGEPFRNWRESQKSRNIICSSS
B16: DOMAIN_23679 (protein, listed as Tupaia chinensis)
chain: MAFEDVAVYFSREEWELLDTAQRALYRHVMLENFALVASLGFSPSRPCVVIQLESGKEPWLHSGMDTTMSRHAHKRPSSGS
B17: DOMAIN_24446 (protein, listed as Propithecus coquereli)
chain: SQGLVSFKDVAVDFTQDEWQQLDPAQRTLYRDVMLENYSHLVSMGYPVSKPDVISKLEQGEDPWIIKRDISNWIYPDENQA
B18: DOMAIN_25671 (protein, listed as Muntiacus reevesi)
chain: GLLSFEDVALYFTREEWDTLDWAQKALYRDVMLDNYRHIVSLGFPFPKPEVICQLEQWEEPWTLDLPRAGTRKASGSACPD
B19: DOMAIN_25565 (protein, listed as Muntiacus reevesi)
chain: LPLTFEDVAVYFSEQEWQNLEAWQKELYKQVMRANYEILLSLDNGLPKPELISWIEQGKELFKKWGESQQSRSIICSSADL
B20: DOMAIN_23018 (protein, listed as Colobus angolensis)
chain: AQMLVTFKDVAVTFTQEEWRQLDLTQRTLYREVMLETCGLLVSLGHRVPKPELVHLLEHGQELWTVKTGLSQPTCAGDRTQ
B21: DOMAIN_25686 (protein, listed as Panthera pardus)
chain: PRVSLTFEDVAVLFTRDEWRKLGPSERNLYQDVMLENYSNLVSLGLLFSKPKVISLLQQGEDPWKVEKESPGGPSLGYKSS
B22: DOMAIN_25235 (protein, listed as Oryctolagus cuniculus)
chain: LPGLMAFEDVAVYFSQEEWGLLDAVQRALYRHVMLENFALVASLGLSASPPHVVIQLQRGEEPWVPSGLDMTSARNGHRRP
B23: DOMAIN_24903 (protein, listed as Ailuropoda melanoleuca)
chain: EMEPHSHAVPCQPSMSFKDVAVTFTQEEWGQLNLAQRRLYRNVTLETWSHLVSLGLLLSKPDVISWLEQGQDPWRAEQGPP
B24: DOMAIN_22919 (protein, listed as Colobus angolensis)
chain: KPGTVSFADVAVYFSREEWGYLRPAQRALYRDVMRETYCHLGALGVGGSKPALISWVEEEAELWDPAARDPEVTKGLTETD
B25: DOMAIN_749 (protein, listed as Pan paniscus)
chain: MGPQGARRQAFLAFGDVTVDFTQKEWRLLSPAQRALYREVTLENYSHLVSLGILHSKPELIRRLEQGEAPWGEERRRRPGP
B26: DOMAIN_731 (protein, listed as Pan paniscus)
chain: MAGEAEAQLDPSLQGLVMFEDVTVYFSREEWGLLNVTQKGLYRDVMLENFALVSSLGLAPSRSPVFTQLEDDEQSWVPSWV
B27: DOMAIN_938 (protein, listed as Pan paniscus)
chain: MPANEDAPQPGEHGSACEVSVSFEDVTVDFSREEWQQLDSTQRRLYQDVMLENYSHLLSVGFEVPKPEVIFKLEQGEGPWT

system: HBEGF locus; assay type: cell-based, human; details: high-throughput screen of dXR repression of the HBEGF gene; abundance of each domain in the library before vs after diphtheria toxin selection; listed domains met p-value <0.01 and log2(fold change) >2

Molecule | Log2 (fold change)
B1 | 2.3323
B2 | 3.4612
B3 | 3.0779
B4 | 2.2996
B5 | 2.5048
B6 | 2.8995
B7 | 2.4075
B8 | 3.8061
B9 | 2.7804
B10 | 3.1251
B11 | 2.1811
B12 | 3.0632
B13 | 3.1072
B14 | 3.2165
B15 | 2.5621
B16 | 3.7951
B17 | 3.6312
B18 | 3.5244
B19 | 2.6133
B20 | 3.4177
B21 | 2.8635
B22 | 3.6965
B23 | 3.0377
B24 | 2.8609

same assay, conditions: high-throughput screen of dXR repression of the HBEGF gene; change in abundance of each domain in the library before and after diphtheria toxin selection

Molecule | Log2 (fold change)
B25 | 3.1162
B26 | 2.1318
B27 | 2.2926
